This is an account of results in FireProtDB (doi:10.1111/j.1432-1033.1988.tb14214.x).

For this data set the following is noted: Bos taurus; pH 7.1; 25 °C; Urea; CD; PIPES 20 mM; reversible: yes; whole UniProt chain shown.

B1: Protein S100-G wild type, P02633 (protein)
chain: MSAKKSPEELKGIFEKYAAKEGDPNQLSKEELKLLLQTEFPSLLKGPSTLDELFEELDKNGDGEVSFEEFQVLVKKISQ
Turning to B1, the denaturant m value stood at 0.91 kcal/mol/M, the “denaturant midpoint (higher = more stable)” value is 5.2 M and the unfolding free energy turned out to be 4.78 kcal/mol.
